Data from PMC6056610.

Assays:
[1] = molecular target: 16055 NFL I559P (HIV-1 16055 (clade C)); assay: SEC; Superdex 200 16/60 or 10/300 GL after lectin-affinity chromatography; also after negative selection or rEK cleavage where told
[2] = molecular target: 16055 NFL L555P (HIV-1 16055 (clade C)); assay: as above
[3] = molecular target: 16055 NFL L555P (HIV-1 16055 (clade C)); assay: negative stain electron microscopy; 2D class averages (RELION) of purified trimers, ~0.01 mg/mL, 0.7% uranyl formate
[4] = molecular target: 16055 NFL N554P (HIV-1 16055 (clade C)); assay: SEC; Superdex 200 16/60 or 10/300 GL after lectin-affinity chromatography; also after negative selection or rEK cleavage where told
[5] = molecular target: 16055 NFL Q562P (HIV-1 16055 (clade C)); assay: as above
[6] = molecular target: 16055 NFL Q562P (HIV-1 16055 (clade C)); assay: negative stain electron microscopy; 2D class averages (RELION) of purified trimers, ~0.01 mg/mL, 0.7% uranyl formate
[7] = molecular target: 16055 NFL Q563P (HIV-1 16055 (clade C)); assay: SEC; Superdex 200 16/60 or 10/300 GL after lectin-affinity chromatography; also after negative selection or rEK cleavage where told
[8] = molecular target: 16055 NFL Q563P (HIV-1 16055 (clade C)); assay: negative stain electron microscopy; 2D class averages (RELION) of purified trimers, ~0.01 mg/mL, 0.7% uranyl formate
[9] = molecular target: 16055 NFL S553P (HIV-1 16055 (clade C)); assay: SEC; Superdex 200 16/60 or 10/300 GL after lectin-affinity chromatography; also after negative selection or rEK cleavage where told
[10] = molecular target: BG505 NFL I559P (HIV-1 BG505 (clade A)); assay: as above
[11] = molecular target: BG505 NFL L555P (HIV-1 BG505 (clade A)); assay: as above
[12] = molecular target: BG505 NFL L555P (HIV-1 BG505 (clade A)); assay: negative stain electron microscopy; 2D class averages (RELION) of purified trimers, ~0.01 mg/mL, 0.7% uranyl formate
[13] = molecular target: BG505 NFL N554P (HIV-1 BG505 (clade A)); assay: SEC; Superdex 200 16/60 or 10/300 GL after lectin-affinity chromatography; also after negative selection or rEK cleavage where told
[14] = molecular target: BG505 NFL Q562P (HIV-1 BG505 (clade A)); assay: as above
[15] = molecular target: BG505 NFL Q563P (HIV-1 BG505 (clade A)); assay: as above
[16] = molecular target: BG505 NFL S553P (HIV-1 BG505 (clade A)); assay: as above

Substance: 16055 NFL I559P (domain or fragment)
- stoichiometry N [1]: 3

Substance: 16055 NFL L555P (domain or fragment)
- stoichiometry N [2]: 3
- stoichiometry N [3]: 3

Substance: 16055 NFL N554P (domain or fragment)
- stoichiometry N [4]: 3

Substance: 16055 NFL Q562P (domain or fragment)
- stoichiometry N [5]: 3
- stoichiometry N [6]: 3

Substance: 16055 NFL Q563P (domain or fragment)
- stoichiometry N [7]: 3
- stoichiometry N [8]: 3

Substance: 16055 NFL S553P (domain or fragment)
- stoichiometry N [9]: 3

Substance: BG505 NFL I559P (domain or fragment)
- stoichiometry N [10]: 3

Substance: BG505 NFL L555P (domain or fragment)
- stoichiometry N [11]: 3
- stoichiometry N [12]: 3

Substance: BG505 NFL N554P (domain or fragment)
- stoichiometry N [13]: 3

Substance: BG505 NFL Q562P (domain or fragment)
- stoichiometry N [14]: 3

Substance: BG505 NFL Q563P (domain or fragment)
- stoichiometry N [15]: 3

Substance: BG505 NFL S553P (domain or fragment)
- stoichiometry N [16]: 3
